Measurements from paper PMC11417369, “DNA sequence and chromatin differentiate sequence-specific transcription factor binding in the human malaria parasite Plasmodium falciparum”.

B1: CACACA_negctrl_site1462 (dsDNA)
DNA 1: ATTTCTTTTTTTTTTTTTTTTAATGTAAAACATTTT
DNA 2: AAAATGTTTTACATTAAAAAAAAAAAAAAAAGAAAT
B2: CACACA_negctrl_site1642 (dsDNA)
DNA 1: TGTTGCAAAACAAAAAAAAAAAAAAAAAATAATAAT
DNA 2: ATTATTATTTTTTTTTTTTTTTTTTGTTTTGCAACA
B3: CACACA_negctrl_site1134 (dsDNA)
DNA 1: GTTTGATAACACCTACAAACTCTTTTTTTTTTTTTT
DNA 2: AAAAAAAAAAAAAAGAGTTTGTAGGTGTTATCAAAC
B4: CACACA_negctrl_site610 (dsDNA)
DNA 1: ATTATAAGAATTAAAAGAAACAAAATTTTAATTATA
DNA 2: TATAATTAAAATTTTGTTTCTTTTAATTCTTATAAT
B5: CACACA_negctrl_site461 (dsDNA)
DNA 1: AGATATAGGAAAATAATATATATATATTTTTTTTTT
DNA 2: AAAAAAAAAATATATATATATTATTTTCCTATATCT
B6: CACACA_site8011 (dsDNA)
DNA 1: AGCACCCACCAACACACACACACACCCACCCACCCA
DNA 2: TGGGTGGGTGGGTGTGTGTGTGTGTTGGTGGGTGCT
B7: CACACA_negctrl_site83 (dsDNA)
DNA 1: GTGTGGTTACAGACACGAACACATTTTTTAAATATT
DNA 2: AATATTTAAAAAATGTGTTCGTGTCTGTAACCACAC
B8: CACACA_negctrl_site1797 (dsDNA)
DNA 1: AGATTATATATATGTATATATGTATATATTTATATA
DNA 2: TATATAAATATATACATATATACATATATATAATCT
B9: CACACA_negctrl_site73 (dsDNA)
DNA 1: TTGATGTATACAATGTAGATTATTTAATATTTCAAC
DNA 2: GTTGAAATATTAAATAATCTACATTGTATACATCAA
B10: CACACA_negctrl_site608 (dsDNA)
DNA 1: GTATATATATATATATATATAATAGTAACTTTTACT
DNA 2: AGTAAAAGTTACTATTATATATATATATATATATAC
B11: CACACA_negctrl_site1686 (dsDNA)
DNA 1: ACAAGTGTATATGTTATATATATATATATATATATA
DNA 2: TATATATATATATATATATATAACATATACACTTGT
B12: CACACA_negctrl_site1016 (dsDNA)
DNA 1: TATATTCCACTCATTGATTTTCTCTTCTCACAAAAA
DNA 2: TTTTTGTGAGAAGAGAAAATCAATGAGTGGAATATA
B13: CACACA_negctrl_site54 (dsDNA)
DNA 1: AATAAAAAAAAAATATATATTTTTTTTTTTTTTTTT
DNA 2: AAAAAAAAAAAAAAAAATATATATTTTTTTTTTATT
B14: CACACA_negctrl_site1632 (dsDNA)
DNA 1: AATTCACATGTGAACTAAAAGAATATTATATATATA
DNA 2: TATATATATAATATTCTTTTAGTTCACATGTGAATT
B15: CACACA_negctrl_site754 (dsDNA)
DNA 1: TATATTTGTACATGATATTTTTTTTTTCTTTTAAAA
DNA 2: TTTTAAAAGAAAAAAAAAATATCATGTACAAATATA
B16: CACACA_negctrl_site251 (dsDNA)
DNA 1: AAGAATGTTATATTATGATGCTGTCTTTTTTTAAGA
DNA 2: TCTTAAAAAAAGACAGCATCATAATATAACATTCTT
B17: CACACA_negctrl_site706 (dsDNA)
DNA 1: TTTCTTATATTATATAAATATATAGATGTTAATGGT
DNA 2: ACCATTAACATCTATATATTTATATAATATAAGAAA
B18: CACACA_negctrl_site942 (dsDNA)
DNA 1: ATATTATGAAGGGATATTTTCAAAAATATTAGGAGA
DNA 2: TCTCCTAATATTTTTGAAAATATCCCTTCATAATAT

target: T1, PF3D7_0420300 D1 (Plasmodium falciparum, UniProt Q8I1N6 1956-2015); assay: gcPBM; about 25 ug protein; PBS, 1% milk, 0.2 mg/ml BSA, salmon testes DNA, 0.03% Triton X-100; settings: tags: N-terminal GST (pGEX-4T-1), kept; label: surface-attached array probe
T1 sequence: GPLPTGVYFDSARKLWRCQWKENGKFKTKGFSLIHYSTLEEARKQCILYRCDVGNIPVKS

Binder	binding signal
B1	9.11 ln median PBM intensity, better of two orientations
B2	9.09 ln median PBM intensity, better of two orientations
B3	9.08 ln median PBM intensity, better of two orientations
B4	9.07 ln median PBM intensity, better of two orientations
B5	9.11 ln median PBM intensity, better of two orientations
B6	10.6 ln median PBM intensity, better of two orientations
B7	9.09 ln median PBM intensity, better of two orientations
B8	9.11 ln median PBM intensity, better of two orientations
B9	9.09 ln median PBM intensity, better of two orientations
B10	9.1 ln median PBM intensity, better of two orientations
B11	9.1 ln median PBM intensity, better of two orientations
B12	9.1 ln median PBM intensity, better of two orientations
B13	9.09 ln median PBM intensity, better of two orientations
B14	9.11 ln median PBM intensity, better of two orientations
B15	9.1 ln median PBM intensity, better of two orientations
B16	9.08 ln median PBM intensity, better of two orientations
B17	9.08 ln median PBM intensity, better of two orientations
B18	9.11 ln median PBM intensity, better of two orientations
